In the experiment the target is gbrap_human GABARAP (UniProt O95166).
Chain of gbrap_human GABARAP (O95166 whole entry): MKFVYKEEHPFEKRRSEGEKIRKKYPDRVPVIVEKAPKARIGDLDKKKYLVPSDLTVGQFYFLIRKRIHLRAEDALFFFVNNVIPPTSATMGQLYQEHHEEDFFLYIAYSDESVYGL
In the case of “Pericentriolar material 1 protein (Homo sapiens), Q15154 D1959A”, the “effect of a mutation on the interaction” value is listed as “with no effect”.

Consider “Pericentriolar material 1 protein (Homo sapiens), Q15154 D1959C”, for which the “effect of a mutation on the interaction” value is reported as “with no effect”.

For the substance “Pericentriolar material 1 protein (Homo sapiens), Q15154 D1959E”, the “effect of a mutation on the interaction” value was “with no effect”.

Regarding “Pericentriolar material 1 protein (Homo sapiens), Q15154 D1959F”, the “effect of a mutation on the interaction” value is “with no effect”.

Consider “Pericentriolar material 1 protein (Homo sapiens), Q15154 D1959G”, for which the “effect of a mutation on the interaction” value is “with no effect”.

“Pericentriolar material 1 protein (Homo sapiens), Q15154 D1959H”: the “effect of a mutation on the interaction” value is listed as “with no effect”.

On to “Pericentriolar material 1 protein (Homo sapiens), Q15154 D1959I”, for which the “effect of a mutation on the interaction” value is on record as “with no effect”.

As for “Pericentriolar material 1 protein (Homo sapiens), Q15154 D1959K”, the “effect of a mutation on the interaction” value is given as “decreasing interaction strength”.

Turning to “Pericentriolar material 1 protein (Homo sapiens), Q15154 D1959L”, the “effect of a mutation on the interaction” value was “with no effect”.

With “Pericentriolar material 1 protein (Homo sapiens), Q15154 D1959M”, the “effect of a mutation on the interaction” value is recorded as “with no effect”.

“Pericentriolar material 1 protein (Homo sapiens), Q15154 D1959N”: the “effect of a mutation on the interaction” value is recorded as “with no effect”.

With “Pericentriolar material 1 protein (Homo sapiens), Q15154 D1959P”, the “effect of a mutation on the interaction” value was “with no effect”.

As for “Pericentriolar material 1 protein (Homo sapiens), Q15154 D1959Q”, the “effect of a mutation on the interaction” value is recorded as “with no effect”.

On to “Pericentriolar material 1 protein (Homo sapiens), Q15154 D1959R”, for which the “effect of a mutation on the interaction” value is “with no effect”.

“Pericentriolar material 1 protein (Homo sapiens), Q15154 D1959S”: the “effect of a mutation on the interaction” value is listed as “with no effect”.

Regarding “Pericentriolar material 1 protein (Homo sapiens), Q15154 D1959T”, the “effect of a mutation on the interaction” value is recorded as “with no effect”.

Take “Pericentriolar material 1 protein (Homo sapiens), Q15154 D1959V”: the “effect of a mutation on the interaction” value is “decreasing interaction strength”.

Turning to “Pericentriolar material 1 protein (Homo sapiens), Q15154 D1959W”, the “effect of a mutation on the interaction” value is “with no effect”.

Regarding “Pericentriolar material 1 protein (Homo sapiens), Q15154 D1959Y”, the “effect of a mutation on the interaction” value was “with no effect”.

Turning to “Pericentriolar material 1 protein (Homo sapiens), Q15154 D1962A”, the “effect of a mutation on the interaction” value is given as “with no effect”.

As to “Pericentriolar material 1 protein (Homo sapiens), Q15154 D1962C”, the “effect of a mutation on the interaction” value is on record as “with no effect”.

With “Pericentriolar material 1 protein (Homo sapiens), Q15154 D1962E”, the “effect of a mutation on the interaction” value was “with no effect”.

As for “Pericentriolar material 1 protein (Homo sapiens), Q15154 D1962F”, the “effect of a mutation on the interaction” value was “with no effect”.

On to “Pericentriolar material 1 protein (Homo sapiens), Q15154 D1962G”, for which the “effect of a mutation on the interaction” value is “with no effect”.

Regarding “Pericentriolar material 1 protein (Homo sapiens), Q15154 D1962H”, the “effect of a mutation on the interaction” value is reported as “decreasing interaction strength”.

As for “Pericentriolar material 1 protein (Homo sapiens), Q15154 D1962I”, the “effect of a mutation on the interaction” value was “disrupting interaction strength”.

Take “Pericentriolar material 1 protein (Homo sapiens), Q15154 D1962K”: the “effect of a mutation on the interaction” value is listed as “disrupting interaction strength”.

Consider “Pericentriolar material 1 protein (Homo sapiens), Q15154 D1962L”, for which the “effect of a mutation on the interaction” value is “disrupting interaction strength”.

For “Pericentriolar material 1 protein (Homo sapiens), Q15154 D1962M”, the “effect of a mutation on the interaction” value is recorded as “decreasing interaction strength”.

On to “Pericentriolar material 1 protein (Homo sapiens), Q15154 D1962N”, for which the “effect of a mutation on the interaction” value is “decreasing interaction strength”.

Turning to “Pericentriolar material 1 protein (Homo sapiens), Q15154 D1962P”, the “effect of a mutation on the interaction” value is recorded as “disrupting interaction strength”.

As to “Pericentriolar material 1 protein (Homo sapiens), Q15154 D1962Q”, the “effect of a mutation on the interaction” value was “decreasing interaction strength”.

As for “Pericentriolar material 1 protein (Homo sapiens), Q15154 D1962R”, the “effect of a mutation on the interaction” value is given as “decreasing interaction strength”.

Regarding “Pericentriolar material 1 protein (Homo sapiens), Q15154 D1962S”, the “effect of a mutation on the interaction” value was “with no effect”.

On to “Pericentriolar material 1 protein (Homo sapiens), Q15154 D1962T”, for which the “effect of a mutation on the interaction” value is “with no effect”.

As to “Pericentriolar material 1 protein (Homo sapiens), Q15154 D1962V”, the “effect of a mutation on the interaction” value is given as “disrupting interaction strength”.

For the substance “Pericentriolar material 1 protein (Homo sapiens), Q15154 D1962W”, the “effect of a mutation on the interaction” value is recorded as “with no effect”.

Turning to “Pericentriolar material 1 protein (Homo sapiens), Q15154 D1962Y”, the “effect of a mutation on the interaction” value is “disrupting interaction strength”.

“Pericentriolar material 1 protein (Homo sapiens), Q15154 D1968A”: the “effect of a mutation on the interaction” value is recorded as “with no effect”.

For the substance “Pericentriolar material 1 protein (Homo sapiens), Q15154 D1968C”, the “effect of a mutation on the interaction” value is listed as “with no effect”.

On to “Pericentriolar material 1 protein (Homo sapiens), Q15154 D1968E”, for which the “effect of a mutation on the interaction” value is given as “with no effect”.

Take “Pericentriolar material 1 protein (Homo sapiens), Q15154 D1968F”: the “effect of a mutation on the interaction” value is given as “with no effect”.

As for “Pericentriolar material 1 protein (Homo sapiens), Q15154 D1968G”, the “effect of a mutation on the interaction” value was “with no effect”.

As to “Pericentriolar material 1 protein (Homo sapiens), Q15154 D1968H”, the “effect of a mutation on the interaction” value is recorded as “with no effect”.

Consider “Pericentriolar material 1 protein (Homo sapiens), Q15154 D1968I”, for which the “effect of a mutation on the interaction” value is reported as “with no effect”.

As for “Pericentriolar material 1 protein (Homo sapiens), Q15154 D1968K”, the “effect of a mutation on the interaction” value is reported as “with no effect”.

As to “Pericentriolar material 1 protein (Homo sapiens), Q15154 D1968L”, the “effect of a mutation on the interaction” value was “with no effect”.

Take “Pericentriolar material 1 protein (Homo sapiens), Q15154 D1968M”: the “effect of a mutation on the interaction” value is reported as “with no effect”.

For “Pericentriolar material 1 protein (Homo sapiens), Q15154 D1968N”, the “effect of a mutation on the interaction” value is reported as “with no effect”.

Take “Pericentriolar material 1 protein (Homo sapiens), Q15154 D1968P”: the “effect of a mutation on the interaction” value is “with no effect”.

As to “Pericentriolar material 1 protein (Homo sapiens), Q15154 D1968Q”, the “effect of a mutation on the interaction” value was “with no effect”.

Consider “Pericentriolar material 1 protein (Homo sapiens), Q15154 D1968R”, for which the “effect of a mutation on the interaction” value is listed as “with no effect”.

In the case of “Pericentriolar material 1 protein (Homo sapiens), Q15154 D1968S”, the “effect of a mutation on the interaction” value is “with no effect”.

On to “Pericentriolar material 1 protein (Homo sapiens), Q15154 D1968T”, for which the “effect of a mutation on the interaction” value is “with no effect”.

“Pericentriolar material 1 protein (Homo sapiens), Q15154 D1968V”: the “effect of a mutation on the interaction” value was “with no effect”.

In the case of “Pericentriolar material 1 protein (Homo sapiens), Q15154 D1968W”, the “effect of a mutation on the interaction” value was “with no effect”.

In the case of “Pericentriolar material 1 protein (Homo sapiens), Q15154 D1968Y”, the “effect of a mutation on the interaction” value was “with no effect”.

Turning to “Pericentriolar material 1 protein (Homo sapiens), Q15154 E1960A”, the “effect of a mutation on the interaction” value was “with no effect”.

Consider “Pericentriolar material 1 protein (Homo sapiens), Q15154 E1960C”, for which the “effect of a mutation on the interaction” value is recorded as “with no effect”.

On to “Pericentriolar material 1 protein (Homo sapiens), Q15154 E1960D”, for which the “effect of a mutation on the interaction” value is “with no effect”.

As for “Pericentriolar material 1 protein (Homo sapiens), Q15154 E1960F”, the “effect of a mutation on the interaction” value is recorded as “with no effect”.

For the substance “Pericentriolar material 1 protein (Homo sapiens), Q15154 E1960G”, the “effect of a mutation on the interaction” value is given as “with no effect”.

For “Pericentriolar material 1 protein (Homo sapiens), Q15154 E1960H”, the “effect of a mutation on the interaction” value is “with no effect”.

For “Pericentriolar material 1 protein (Homo sapiens), Q15154 E1960I”, the “effect of a mutation on the interaction” value is “with no effect”.

The values are drawn from IntAct's records for PubMed 28712572.
